One may read the IC50 as the concentration that gives 50% inhibition. One may read the Km as the concentration of substrate that gives half-maximal velocity.

The target of data set [1] is T1, cytochrome P450 17A1 (CYP17A1) (Homo sapiens, UniProt P05093).
T1 sequence (P05093 20-508): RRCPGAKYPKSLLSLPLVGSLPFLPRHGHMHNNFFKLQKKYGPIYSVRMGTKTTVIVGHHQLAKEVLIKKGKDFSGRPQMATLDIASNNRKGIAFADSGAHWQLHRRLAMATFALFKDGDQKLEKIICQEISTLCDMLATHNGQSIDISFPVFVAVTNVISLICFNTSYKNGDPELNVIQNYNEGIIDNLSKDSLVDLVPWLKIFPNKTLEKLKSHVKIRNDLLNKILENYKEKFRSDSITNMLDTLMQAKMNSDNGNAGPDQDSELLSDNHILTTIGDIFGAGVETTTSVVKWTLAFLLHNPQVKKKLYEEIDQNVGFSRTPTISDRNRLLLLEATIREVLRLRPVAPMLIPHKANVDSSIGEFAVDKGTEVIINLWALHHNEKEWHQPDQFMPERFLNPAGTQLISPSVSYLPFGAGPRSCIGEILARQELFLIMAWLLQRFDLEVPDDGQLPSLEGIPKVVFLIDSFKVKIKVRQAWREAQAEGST
The class given is biochemical.

Data set [2] concerns the target T2, CYP17A1 N52Y (Homo sapiens, UniProt P05093, N52Y).
T2 sequence (P05093 20-508 N52Y): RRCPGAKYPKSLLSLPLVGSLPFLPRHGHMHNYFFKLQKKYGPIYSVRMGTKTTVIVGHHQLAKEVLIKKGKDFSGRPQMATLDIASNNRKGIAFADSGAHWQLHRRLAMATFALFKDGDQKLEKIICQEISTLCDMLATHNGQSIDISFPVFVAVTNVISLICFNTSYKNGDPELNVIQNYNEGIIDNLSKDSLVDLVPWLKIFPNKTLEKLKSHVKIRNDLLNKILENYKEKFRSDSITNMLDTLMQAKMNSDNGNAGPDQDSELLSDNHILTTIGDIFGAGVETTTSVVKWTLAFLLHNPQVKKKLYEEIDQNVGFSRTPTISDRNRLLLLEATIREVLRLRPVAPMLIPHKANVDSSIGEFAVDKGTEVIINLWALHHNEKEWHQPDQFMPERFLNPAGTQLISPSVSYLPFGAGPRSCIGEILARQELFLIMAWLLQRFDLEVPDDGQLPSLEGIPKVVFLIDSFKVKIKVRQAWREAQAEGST
The data set is described as follows: X-ray co-crystal structure, […] Å. The class given is biochemical.

Substrate in data set [3]: CC(=O)[C@@]1(O)CC[C@H]2[C@@H]3CC=C4C[C@@H](O)CC[C@]4(C)[C@H]3CC[C@@]21C
Description: purified protein. The note with it: heme displacement of heme-coordinated water.

Substrate in data set [4]: CC(=O)[C@H]1CC[C@H]2[C@@H]3CCC4=CC(=O)CC[C@]4(C)[C@H]3CC[C@]12C
Description: purified protein.

For `C[C@]12CC[C@H](O)CC1=CC[C@@H]1[C@@H]2CC[C@]2(C)C(c3cccnc3)=CC[C@@H]12` [abiraterone], the IC50 in data set [1] worked out at 69 ± 5 nM; in data set [2], 51 ± 2 nM.

B1: CYP17A1 N52Y (Homo sapiens; N52Y) (protein)
chain: RRCPGAKYPKSLLSLPLVGSLPFLPRHGHMHNYFFKLQKKYGPIYSVRMGTKTTVIVGHHQLAKEVLIKKGKDFSGRPQMATLDIASNNRKGIAFADSGAHWQLHRRLAMATFALFKDGDQKLEKIICQEISTLCDMLATHNGQSIDISFPVFVAVTNVISLICFNTSYKNGDPELNVIQNYNEGIIDNLSKDSLVDLVPWLKIFPNKTLEKLKSHVKIRNDLLNKILENYKEKFRSDSITNMLDTLMQAKMNSDNGNAGPDQDSELLSDNHILTTIGDIFGAGVETTTSVVKWTLAFLLHNPQVKKKLYEEIDQNVGFSRTPTISDRNRLLLLEATIREVLRLRPVAPMLIPHKANVDSSIGEFAVDKGTEVIINLWALHHNEKEWHQPDQFMPERFLNPAGTQLISPSVSYLPFGAGPRSCIGEILARQELFLIMAWLLQRFDLEVPDDGQLPSLEGIPKVVFLIDSFKVKIKVRQAWREAQAEGST
With B1, the Km in data set [3] is 0.6 ± 0.1 µM; in data set [4] (heme displacement of heme-coordinated water), 1.60 ± 0.09 µM.

B2: cytochrome P450 17A1 (CYP17A1) (Homo sapiens) (protein)
chain: RRCPGAKYPKSLLSLPLVGSLPFLPRHGHMHNNFFKLQKKYGPIYSVRMGTKTTVIVGHHQLAKEVLIKKGKDFSGRPQMATLDIASNNRKGIAFADSGAHWQLHRRLAMATFALFKDGDQKLEKIICQEISTLCDMLATHNGQSIDISFPVFVAVTNVISLICFNTSYKNGDPELNVIQNYNEGIIDNLSKDSLVDLVPWLKIFPNKTLEKLKSHVKIRNDLLNKILENYKEKFRSDSITNMLDTLMQAKMNSDNGNAGPDQDSELLSDNHILTTIGDIFGAGVETTTSVVKWTLAFLLHNPQVKKKLYEEIDQNVGFSRTPTISDRNRLLLLEATIREVLRLRPVAPMLIPHKANVDSSIGEFAVDKGTEVIINLWALHHNEKEWHQPDQFMPERFLNPAGTQLISPSVSYLPFGAGPRSCIGEILARQELFLIMAWLLQRFDLEVPDDGQLPSLEGIPKVVFLIDSFKVKIKVRQAWREAQAEGST
On to B2, for which, in data set [4] (heme), the Km worked out at 5.2 ± 0.5 µM.
